The text below walks through data of the supplement of paper PMC7125110.

To fix the notation:
B1: glmS ribozyme (parent)
chain: AUAAAAGCGCCAGAACUACAGAAAUGUAGUUGACGAGGAGGAGGUUUAUCGAAUUUUCGGCGGAUGCCUCCAAA

± gives the standard error. For some assays here: Fewer inactive variants are shown than the library holds.

What all share (settings): with glucosamine-6-phosphate
The variants in series [1] derive from B1. The experiment in a line: kcat; higher = faster cleavage; RNA array. In outline:
(§1)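 In situ transcription by E. coli RNA polymerase produced barcoded ribozyme variants on sequenced MiSeq chips, and a hybridised Cy3 probe tracked them at 37 °C. Glucosamine-6-phosphate was flowed in at 40 μM to 10 mM in HEPES/KCl/Mg(OAc)2 buffer. kcat and KM were taken from weighted Michaelis–Menten fits of kobs values from exponential decay fits.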

Variants of B1 are the subject of series [2]. The experiment in a line: self-cleavage kobs at 2500 uM GlcN6P; higher = faster cleavage; RNA array. An outline of the steps: as §1
The variants in series [3] derive from B1. The experiment in a line: self-cleavage kobs at 10000 uM GlcN6P; higher = faster cleavage; RNA array. An outline of the steps: as §1
Variants of B1 are the subject of series [4]. In words: self-cleavage kobs at 40 uM GlcN6P; higher = faster cleavage; RNA array. An outline of the steps: as §1
In series [5] the parent is B1. The experiment in a line: KM; higher = weaker cofactor use; RNA array. In outline: as §1
The variants in series [6] derive from B1. The experiment in a line: self-cleavage kobs at 640 uM GlcN6P; higher = faster cleavage; RNA array. An outline of the steps:
as §1

Variants of B1 are the subject of series [7]. The experiment in a line: self-cleavage kobs at 160 uM GlcN6P; higher = faster cleavage; RNA array. An outline of the steps:
as §1

For U65G C67U C68U, in the series with glucosamine-6-phosphate [1], the turnover number (kcat) was determined as 9.98e-05 ± 3.8e-05 s⁻¹. Further, in the series with glucosamine-6-phosphate [2], the “self-cleavage kobs at 2500 uM GlcN6P” value was 5.84e-05 ± 1.3e-05 s⁻¹. In the series with glucosamine-6-phosphate [3], the “self-cleavage kobs at 10000 uM GlcN6P” value is 6.91e-05 ± 2.9e-05 s⁻¹.

With U55C U57C, the kcat with glucosamine-6-phosphate [1] came out at 9.84e-05 ± 1.9e-05 s⁻¹. Moreover, in the series with glucosamine-6-phosphate [2], the “self-cleavage kobs at 2500 uM GlcN6P” value was 8.25e-05 ± 1.9e-05 s⁻¹. The “self-cleavage kobs at 10000 uM GlcN6P” value with glucosamine-6-phosphate [3] worked out at 8.27e-05 ± 1.2e-05 s⁻¹.

For G13A C67A C68U C70G, the turnover number (kcat) with glucosamine-6-phosphate [1] is below 1e-05 s⁻¹. In the series with glucosamine-6-phosphate [4], the “self-cleavage kobs at 40 uM GlcN6P” value is below 1e-05 s⁻¹.

Consider G32U U69A, for which the kcat with glucosamine-6-phosphate [1] came to 9.32e-05 ± 6.2e-06 s⁻¹. Moreover, in the series with glucosamine-6-phosphate [5], the KM turned out to be 142 ± 64 µM. Besides, in the series with glucosamine-6-phosphate [6], the “self-cleavage kobs at 640 uM GlcN6P” value turned out to be 8.92e-05 ± 1.9e-05 s⁻¹. Also, in the series with glucosamine-6-phosphate [2], the “self-cleavage kobs at 2500 uM GlcN6P” value was determined as 9.1e-05 ± 1.4e-05 s⁻¹. Also, the “self-cleavage kobs at 10000 uM GlcN6P” value with glucosamine-6-phosphate [3] was found to be 8.84e-05 ± 1.1e-05 s⁻¹.

For the variant C11U G41A, the kcat in the series with glucosamine-6-phosphate [1] was 8.97e-05 ± 1e-05 s⁻¹. Moreover, the “self-cleavage kobs at 640 uM GlcN6P” value with glucosamine-6-phosphate [6] came out at 3.01e-05 ± 1.2e-05 s⁻¹. Also, the “self-cleavage kobs at 2500 uM GlcN6P” value in the series with glucosamine-6-phosphate [2] was determined as 8.81e-05 ± 1.8e-05 s⁻¹. For the same variant, in the series with glucosamine-6-phosphate [3], the “self-cleavage kobs at 10000 uM GlcN6P” value is 7.91e-05 ± 8.6e-06 s⁻¹.

Turning to G59U C68A, the kcat with glucosamine-6-phosphate [1] is 2.28e-05 ± 4.9e-06 s⁻¹.

For G7A U55A, in the series with glucosamine-6-phosphate [1], the kcat was found to be 8.93e-05 ± 9.4e-06 s⁻¹.

With G37A G40C, the kcat with glucosamine-6-phosphate [1] is 0.000207 ± 4.1e-05 s⁻¹. Further, the KM in the series with glucosamine-6-phosphate [5] stood at 2180 ± 880 µM. The “self-cleavage kobs at 640 uM GlcN6P” value with glucosamine-6-phosphate [6] was 4.22e-05 ± 1.3e-05 s⁻¹. Further, the “self-cleavage kobs at 2500 uM GlcN6P” value in the series with glucosamine-6-phosphate [2] was 0.00015 ± 3.5e-05 s⁻¹. The “self-cleavage kobs at 10000 uM GlcN6P” value in the series with glucosamine-6-phosphate [3] was 0.000157 ± 3.4e-05 s⁻¹.

In the case of C16U U69G, the kcat in the series with glucosamine-6-phosphate [1] came out at 6.57e-05 ± 1.1e-05 s⁻¹. Besides, the “self-cleavage kobs at 160 uM GlcN6P” value with glucosamine-6-phosphate [7] stood at 5.84e-05 ± 1.4e-05 s⁻¹. Moreover, the “self-cleavage kobs at 640 uM GlcN6P” value in the series with glucosamine-6-phosphate [6] is 9.02e-05 ± 2.1e-05 s⁻¹. Besides, the “self-cleavage kobs at 2500 uM GlcN6P” value in the series with glucosamine-6-phosphate [2] came to 8.96e-05 ± 1.1e-05 s⁻¹. In addition, in the series with glucosamine-6-phosphate [3], the “self-cleavage kobs at 10000 uM GlcN6P” value was 5.34e-05 ± 6.6e-06 s⁻¹.

Regarding U31C G41C, in the series with glucosamine-6-phosphate [1], the kcat came out at 4.88e-05 ± 2e-05 s⁻¹.

For the variant C34U G38A C71U, the kcat with glucosamine-6-phosphate [1] is below 1e-05 s⁻¹. Besides, the “self-cleavage kobs at 40 uM GlcN6P” value in the series with glucosamine-6-phosphate [4] is below 1e-05 s⁻¹. The “self-cleavage kobs at 160 uM GlcN6P” value in the series with glucosamine-6-phosphate [7] was below 1e-05 s⁻¹. The “self-cleavage kobs at 2500 uM GlcN6P” value with glucosamine-6-phosphate [2] was below 1e-05 s⁻¹.

As to A53U U54G, the kcat with glucosamine-6-phosphate [1] came to 0.0452 ± 0.016 s⁻¹. Besides, the Michaelis-Menten constant (KM) with glucosamine-6-phosphate [5] was found to be 3780 ± 1600 µM. In addition, in the series with glucosamine-6-phosphate [4], the “self-cleavage kobs at 40 uM GlcN6P” value amounted to 0.000521 ± 4.8e-05 s⁻¹. In addition, in the series with glucosamine-6-phosphate [6], the “self-cleavage kobs at 640 uM GlcN6P” value was 0.00468 ± 0.001 s⁻¹. The “self-cleavage kobs at 2500 uM GlcN6P” value in the series with glucosamine-6-phosphate [2] was determined as 0.0161 ± 0.0061 s⁻¹. In the series with glucosamine-6-phosphate [3], the “self-cleavage kobs at 10000 uM GlcN6P” value was found to be 0.0354 ± 0.0056 s⁻¹.

As to A53G U65A C67A, the kcat with glucosamine-6-phosphate [1] stood at 0.000109 ± 1.9e-05 s⁻¹. In the series with glucosamine-6-phosphate [7], the “self-cleavage kobs at 160 uM GlcN6P” value came to 8.41e-05 ± 2.3e-05 s⁻¹. Also, the “self-cleavage kobs at 640 uM GlcN6P” value in the series with glucosamine-6-phosphate [6] was 0.000153 ± 3.7e-05 s⁻¹. For the same variant, in the series with glucosamine-6-phosphate [2], the “self-cleavage kobs at 2500 uM GlcN6P” value was found to be 0.000112 ± 2.9e-05 s⁻¹. Besides, the “self-cleavage kobs at 10000 uM GlcN6P” value with glucosamine-6-phosphate [3] turned out to be 9.28e-05 ± 2.4e-05 s⁻¹.

For A14C U31G G40C, the kcat with glucosamine-6-phosphate [1] stood at 0.00179 ± 0.00038 s⁻¹. Moreover, the KM with glucosamine-6-phosphate [5] came to 1560 ± 520 µM. Further, the “self-cleavage kobs at 40 uM GlcN6P” value with glucosamine-6-phosphate [4] is 5.2e-05 ± 1.1e-05 s⁻¹. In addition, the “self-cleavage kobs at 640 uM GlcN6P” value with glucosamine-6-phosphate [6] was 0.000477 ± 9.7e-05 s⁻¹. Moreover, the “self-cleavage kobs at 2500 uM GlcN6P” value in the series with glucosamine-6-phosphate [2] was found to be 0.00097 ± 0.00023 s⁻¹. In the series with glucosamine-6-phosphate [3], the “self-cleavage kobs at 10000 uM GlcN6P” value worked out at 0.00184 ± 0.00041 s⁻¹.

As for A53C C67U, in the series with glucosamine-6-phosphate [1], the kcat came to 0.00119 ± 0.00012 s⁻¹. The KM in the series with glucosamine-6-phosphate [5] was found to be 1500 ± 230 µM. Further, in the series with glucosamine-6-phosphate [4], the “self-cleavage kobs at 40 uM GlcN6P” value is 4e-05 ± 6.8e-06 s⁻¹. The “self-cleavage kobs at 160 uM GlcN6P” value with glucosamine-6-phosphate [7] stood at 0.000109 ± 1e-05 s⁻¹. Besides, the “self-cleavage kobs at 640 uM GlcN6P” value with glucosamine-6-phosphate [6] turned out to be 0.000355 ± 3.8e-05 s⁻¹. For the same variant, the “self-cleavage kobs at 2500 uM GlcN6P” value with glucosamine-6-phosphate [2] is 0.000692 ± 8.1e-05 s⁻¹. Further, in the series with glucosamine-6-phosphate [3], the “self-cleavage kobs at 10000 uM GlcN6P” value was 0.00108 ± 0.00011 s⁻¹.

In the case of A39G C67U, the kcat with glucosamine-6-phosphate [1] turned out to be 0.00597 ± 0.0013 s⁻¹. In addition, the KM with glucosamine-6-phosphate [5] stood at 979 ± 370 µM. Also, the “self-cleavage kobs at 40 uM GlcN6P” value with glucosamine-6-phosphate [4] amounted to 0.00033 ± 5.8e-05 s⁻¹. For the same variant, in the series with glucosamine-6-phosphate [7], the “self-cleavage kobs at 160 uM GlcN6P” value was 0.000762 ± 0.00016 s⁻¹. The “self-cleavage kobs at 640 uM GlcN6P” value with glucosamine-6-phosphate [6] was 0.00216 ± 0.00033 s⁻¹. In addition, the “self-cleavage kobs at 2500 uM GlcN6P” value with glucosamine-6-phosphate [2] was found to be 0.00338 ± 0.0007 s⁻¹. The “self-cleavage kobs at 10000 uM GlcN6P” value with glucosamine-6-phosphate [3] was 0.00666 ± 0.00089 s⁻¹.

As to U30G U65G, the kcat with glucosamine-6-phosphate [1] came out at 0.00191 ± 0.00048 s⁻¹. In the series with glucosamine-6-phosphate [5], the KM turned out to be 3590 ± 1400 µM. Further, in the series with glucosamine-6-phosphate [7], the “self-cleavage kobs at 160 uM GlcN6P” value worked out at 8.07e-05 ± 1.4e-05 s⁻¹. Moreover, the “self-cleavage kobs at 640 uM GlcN6P” value with glucosamine-6-phosphate [6] was 0.000378 ± 6e-05 s⁻¹. In addition, the “self-cleavage kobs at 2500 uM GlcN6P” value with glucosamine-6-phosphate [2] was 0.000614 ± 0.0001 s⁻¹. In the series with glucosamine-6-phosphate [3], the “self-cleavage kobs at 10000 uM GlcN6P” value is 0.00155 ± 0.00019 s⁻¹.
